Reference: patent publication US9211312 (VOLUTION IMMUNO PHARMACEUTICALS, dated 2015)

Experiments:
complement C5 = molecular target: T1, complement C5 (Homo sapiens (Human), UniProt P01031 19-673; P01031 678-1676, The beta and alpha chains of native C5 are linked by a disulfide bond. The native protein is glycosylated.); experiment: direct binding to C5 (FIG. 4C); method not described
T1 construct: also called complement protein C5

[1] = molecular target: rat complement C5 (in rat serum) (rat, UniProt P08650 19-1681); experiment: cell-based or functional assay
[2] = molecular target: human complement C5 (in human serum) (human, UniProt P01031 19-1676); experiment: cell-based or functional assay
Sequence of human complement C5 (in human serum) (P01031 19-1676 limits assumed): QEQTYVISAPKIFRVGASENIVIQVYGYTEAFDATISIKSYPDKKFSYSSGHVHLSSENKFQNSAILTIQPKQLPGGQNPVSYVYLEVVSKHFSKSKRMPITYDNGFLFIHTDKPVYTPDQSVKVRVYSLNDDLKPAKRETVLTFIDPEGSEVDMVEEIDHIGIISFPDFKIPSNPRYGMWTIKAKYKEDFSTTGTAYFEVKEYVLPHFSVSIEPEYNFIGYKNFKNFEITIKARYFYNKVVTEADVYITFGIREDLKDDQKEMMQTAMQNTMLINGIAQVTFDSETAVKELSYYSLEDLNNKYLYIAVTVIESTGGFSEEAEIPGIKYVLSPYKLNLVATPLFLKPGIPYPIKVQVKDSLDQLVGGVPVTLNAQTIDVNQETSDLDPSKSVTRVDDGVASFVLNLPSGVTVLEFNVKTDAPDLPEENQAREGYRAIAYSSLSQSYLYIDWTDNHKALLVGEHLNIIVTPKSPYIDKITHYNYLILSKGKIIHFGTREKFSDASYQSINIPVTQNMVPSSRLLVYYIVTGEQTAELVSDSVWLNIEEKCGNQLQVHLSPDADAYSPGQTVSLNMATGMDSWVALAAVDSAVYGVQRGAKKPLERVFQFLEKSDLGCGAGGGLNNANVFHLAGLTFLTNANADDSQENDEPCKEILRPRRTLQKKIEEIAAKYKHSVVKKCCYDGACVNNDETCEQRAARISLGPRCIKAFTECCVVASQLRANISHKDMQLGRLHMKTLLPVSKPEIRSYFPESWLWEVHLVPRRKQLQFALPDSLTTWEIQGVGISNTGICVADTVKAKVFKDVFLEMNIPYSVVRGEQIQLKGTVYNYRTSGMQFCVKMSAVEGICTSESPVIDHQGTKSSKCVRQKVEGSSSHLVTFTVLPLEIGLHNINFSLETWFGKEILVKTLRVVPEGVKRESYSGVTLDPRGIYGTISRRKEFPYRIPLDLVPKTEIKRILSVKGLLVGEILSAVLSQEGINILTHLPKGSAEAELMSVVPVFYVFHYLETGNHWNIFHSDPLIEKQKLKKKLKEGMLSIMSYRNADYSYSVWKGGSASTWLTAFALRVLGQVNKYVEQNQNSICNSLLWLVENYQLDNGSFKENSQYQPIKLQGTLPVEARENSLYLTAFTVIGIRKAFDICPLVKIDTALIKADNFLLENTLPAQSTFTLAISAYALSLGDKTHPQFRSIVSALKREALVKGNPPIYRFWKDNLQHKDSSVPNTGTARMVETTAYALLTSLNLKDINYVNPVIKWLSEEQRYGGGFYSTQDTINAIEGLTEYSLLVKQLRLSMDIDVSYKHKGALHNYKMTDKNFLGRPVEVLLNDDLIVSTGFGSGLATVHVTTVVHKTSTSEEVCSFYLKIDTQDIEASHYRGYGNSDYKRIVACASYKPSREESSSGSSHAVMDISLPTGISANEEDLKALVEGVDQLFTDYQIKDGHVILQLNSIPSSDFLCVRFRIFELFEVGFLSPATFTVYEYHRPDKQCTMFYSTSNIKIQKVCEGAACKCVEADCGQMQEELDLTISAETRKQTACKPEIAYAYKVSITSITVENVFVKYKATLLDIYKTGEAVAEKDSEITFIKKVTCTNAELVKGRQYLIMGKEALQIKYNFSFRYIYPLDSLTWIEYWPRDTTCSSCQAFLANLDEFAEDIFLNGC

[3] = molecular target: mouse complement C5 (in mouse serum) (mouse, UniProt P06684 19-1680); experiment: cell-based or functional assay
Sequence of mouse complement C5 (in mouse serum) (P06684 19-1680 limits assumed): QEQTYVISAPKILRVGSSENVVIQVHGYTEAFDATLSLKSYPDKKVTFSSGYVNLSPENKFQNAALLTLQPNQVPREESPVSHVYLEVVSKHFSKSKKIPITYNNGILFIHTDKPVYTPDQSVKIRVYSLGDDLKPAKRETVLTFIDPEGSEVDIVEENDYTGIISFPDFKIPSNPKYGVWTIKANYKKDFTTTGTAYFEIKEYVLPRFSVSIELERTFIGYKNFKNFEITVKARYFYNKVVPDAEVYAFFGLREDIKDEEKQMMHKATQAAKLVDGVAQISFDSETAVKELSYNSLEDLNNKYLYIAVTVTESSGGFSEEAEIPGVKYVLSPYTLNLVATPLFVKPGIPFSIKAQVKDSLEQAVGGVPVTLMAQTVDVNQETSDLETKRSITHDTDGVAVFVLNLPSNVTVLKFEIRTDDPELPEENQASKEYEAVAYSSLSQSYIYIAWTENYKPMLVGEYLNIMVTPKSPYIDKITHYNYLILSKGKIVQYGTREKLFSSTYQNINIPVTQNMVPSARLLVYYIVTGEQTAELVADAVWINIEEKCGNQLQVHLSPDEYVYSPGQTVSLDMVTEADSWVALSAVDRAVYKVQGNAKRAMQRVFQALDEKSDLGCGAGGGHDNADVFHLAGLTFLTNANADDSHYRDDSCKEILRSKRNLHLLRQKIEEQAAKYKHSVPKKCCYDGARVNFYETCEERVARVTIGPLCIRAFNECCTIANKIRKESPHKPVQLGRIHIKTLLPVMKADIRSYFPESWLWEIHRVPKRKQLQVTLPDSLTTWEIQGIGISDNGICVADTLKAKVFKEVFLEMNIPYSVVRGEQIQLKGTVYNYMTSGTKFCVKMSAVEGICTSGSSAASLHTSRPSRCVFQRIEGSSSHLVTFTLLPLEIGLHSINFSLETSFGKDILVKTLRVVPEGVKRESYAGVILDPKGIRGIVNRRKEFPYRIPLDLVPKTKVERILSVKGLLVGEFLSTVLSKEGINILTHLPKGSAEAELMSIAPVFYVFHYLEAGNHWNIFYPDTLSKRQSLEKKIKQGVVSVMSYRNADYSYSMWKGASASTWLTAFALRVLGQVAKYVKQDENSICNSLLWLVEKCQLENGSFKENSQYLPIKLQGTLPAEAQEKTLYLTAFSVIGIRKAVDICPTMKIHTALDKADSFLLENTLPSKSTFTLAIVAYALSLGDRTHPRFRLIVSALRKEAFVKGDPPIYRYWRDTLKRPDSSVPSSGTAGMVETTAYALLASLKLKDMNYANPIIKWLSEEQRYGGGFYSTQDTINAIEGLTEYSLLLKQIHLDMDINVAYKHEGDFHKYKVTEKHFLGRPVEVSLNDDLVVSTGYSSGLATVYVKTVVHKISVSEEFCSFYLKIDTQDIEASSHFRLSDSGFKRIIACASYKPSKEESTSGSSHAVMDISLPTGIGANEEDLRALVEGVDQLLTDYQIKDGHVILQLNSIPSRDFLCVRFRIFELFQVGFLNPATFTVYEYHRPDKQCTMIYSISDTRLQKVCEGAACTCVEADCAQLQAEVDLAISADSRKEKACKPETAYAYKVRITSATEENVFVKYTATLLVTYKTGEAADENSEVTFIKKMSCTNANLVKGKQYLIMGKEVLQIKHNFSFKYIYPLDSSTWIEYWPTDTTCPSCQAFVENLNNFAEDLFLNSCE

T1 sequence (P01031 19-673 limits assumed, form in doubt, chain 1 of 2): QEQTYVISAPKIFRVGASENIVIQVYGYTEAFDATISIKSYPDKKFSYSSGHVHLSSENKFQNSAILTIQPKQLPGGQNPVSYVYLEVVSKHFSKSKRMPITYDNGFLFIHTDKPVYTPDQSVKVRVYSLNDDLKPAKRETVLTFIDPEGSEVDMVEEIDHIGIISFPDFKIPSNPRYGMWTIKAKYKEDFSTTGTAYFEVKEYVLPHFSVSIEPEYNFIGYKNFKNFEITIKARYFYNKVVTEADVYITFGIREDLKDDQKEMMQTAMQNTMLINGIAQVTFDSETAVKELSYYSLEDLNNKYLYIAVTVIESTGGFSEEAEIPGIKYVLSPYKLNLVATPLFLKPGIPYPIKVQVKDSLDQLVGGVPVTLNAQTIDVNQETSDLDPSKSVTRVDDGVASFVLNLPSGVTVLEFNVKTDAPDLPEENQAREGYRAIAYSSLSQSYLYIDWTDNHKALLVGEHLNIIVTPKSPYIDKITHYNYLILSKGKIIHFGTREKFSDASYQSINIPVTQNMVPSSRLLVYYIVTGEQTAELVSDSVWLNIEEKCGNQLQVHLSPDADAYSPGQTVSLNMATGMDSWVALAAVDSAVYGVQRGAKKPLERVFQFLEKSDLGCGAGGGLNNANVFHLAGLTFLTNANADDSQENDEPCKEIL
T1 sequence (P01031 678-1676 limits assumed, form in doubt, chain 2 of 2): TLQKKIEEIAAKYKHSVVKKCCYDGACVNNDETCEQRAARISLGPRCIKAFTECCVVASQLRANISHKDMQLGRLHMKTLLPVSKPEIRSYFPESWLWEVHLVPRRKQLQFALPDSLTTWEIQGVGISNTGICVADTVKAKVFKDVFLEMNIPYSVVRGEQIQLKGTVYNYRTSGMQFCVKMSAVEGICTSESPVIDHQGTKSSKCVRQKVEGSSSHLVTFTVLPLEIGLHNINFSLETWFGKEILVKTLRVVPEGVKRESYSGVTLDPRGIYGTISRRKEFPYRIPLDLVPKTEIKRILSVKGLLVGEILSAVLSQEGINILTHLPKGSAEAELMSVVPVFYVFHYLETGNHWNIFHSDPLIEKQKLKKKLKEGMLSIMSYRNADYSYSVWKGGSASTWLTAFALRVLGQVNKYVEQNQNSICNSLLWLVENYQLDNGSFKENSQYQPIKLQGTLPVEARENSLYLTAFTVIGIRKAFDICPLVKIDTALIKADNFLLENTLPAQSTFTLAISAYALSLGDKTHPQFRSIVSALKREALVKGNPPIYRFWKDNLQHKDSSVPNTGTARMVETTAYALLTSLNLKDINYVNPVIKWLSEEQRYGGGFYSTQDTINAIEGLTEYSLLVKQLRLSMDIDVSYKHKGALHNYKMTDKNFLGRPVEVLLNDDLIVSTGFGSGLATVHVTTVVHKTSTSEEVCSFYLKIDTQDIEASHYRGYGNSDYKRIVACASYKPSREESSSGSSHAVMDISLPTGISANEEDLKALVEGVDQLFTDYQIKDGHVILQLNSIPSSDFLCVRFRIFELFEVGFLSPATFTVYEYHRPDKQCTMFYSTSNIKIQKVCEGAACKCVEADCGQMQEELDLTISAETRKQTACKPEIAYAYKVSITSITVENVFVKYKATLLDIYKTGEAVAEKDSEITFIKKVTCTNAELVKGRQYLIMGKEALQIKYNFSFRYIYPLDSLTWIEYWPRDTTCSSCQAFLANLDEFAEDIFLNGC

B1: EV576 protein, native, purified from salivary gland extracts of the soft tick Ornithodoros moubata (other)
chain: DSESDCTGSEPVDAFQAFSEGKEAYVLVRSTDPKARDCLKGEPAGEKQDNTLPVMMTFKNGTDWASTDWTFTLDGAKVTATLGNLTQNREVVYDSQSHHCHVDKVEKEVPDYEMWMLDAGGLEVEVECCRQKLEELASGRNQMYPHLKDC
~20 µg/mL: IC50 (complement C5) | IC50, binding of C5 and prevention of its cleavage by C5 convertase in serum [1] | IC50, binding of C5 and prevention of its cleavage by C5 convertase in serum [2] | IC50, binding of C5 and prevention of its cleavage by C5 convertase in serum [3]
